Assay results reported in patent publication US20230272119A1 (MARENGO THERAPEUTICS, published 2023).

Key:
[1] = target: T1, α-CCR2 heavy-LgBiT (SEQ ID NO: 155); assay: NanoBiT, HC-LgBiT:LC-SmBiT:competing LC 1:1:1; competing kappa LC m24 (SEQ ID NO: 115)
T1 construct: VH-CH1-linker-LgBiT; germline VH1-2*01

[2] = target: T1, α-CCR2 heavy-LgBiT (SEQ ID NO: 155); assay: NanoBiT, HC-LgBiT:LC-SmBiT:competing LC 1:1:1; competing kappa LC m33 (SEQ ID NO: 124)
[3] = target: T1, α-CCR2 heavy-LgBiT (SEQ ID NO: 155); assay: NanoBiT, HC-LgBiT:LC-SmBiT:competing LC 1:1:1; competing kappa LC m36 (SEQ ID NO: 127)
[4] = target: T1, α-CCR2 heavy-LgBiT (SEQ ID NO: 155); assay: NanoBiT, HC-LgBiT:LC-SmBiT:competing LC 1:1:1; competing kappa LC m42 (SEQ ID NO: 133)
[5] = target: T2, α-IL12β heavy-hCHIg_Hole_Cys (SEQ ID NO: 170) (Homo sapiens (Human), UniProt P0DOX5 1-449 = IgG part); assay: intact MS of papain-cleaved multispecific molecule 3; Fab of this pairing observed (observed mass, Da)
T2 construct: full heavy chain, human Fc hole; Fab analysed after papain cleavage in the MS assay; germline VH3-33*01; also called HCP1 of multispecific molecules 3 and 9

[6] = target: T3, α-CTLA4 heavy-hCHIg_Knob_Cys (SEQ ID NO: 168) (Homo sapiens (Human), UniProt P0DOX5 1-449 = IgG part); assay: intact MS of papain-cleaved multispecific molecule 3; Fab 'Kappa heavy chain/lambda light chain' not observed
T3 construct: full heavy chain, human Fc knob; Fab analysed after papain cleavage in the MS assay; germline VH3-30*01; also called HCP2 of multispecific molecules 3, 4, 5, 9

[7] = target: T4, α-CCR2 heavy-LgBiT (SEQ ID NO: 158); assay: NanoBiT, HC-LgBiT:LC-SmBiT:competing LC 1:1:1; competing kappa LC m6 (SEQ ID NO: 97)
T4 construct: VH-CH1-linker-LgBiT; germline VH3-7*01

[8] = target: T4, α-CCR2 heavy-LgBiT (SEQ ID NO: 158); assay: NanoBiT, HC-LgBiT:LC-SmBiT:competing LC 1:1:1; competing kappa LC m9 (SEQ ID NO: 100)
[9] = target: T4, α-CCR2 heavy-LgBiT (SEQ ID NO: 158); assay: NanoBiT, HC-LgBiT:LC-SmBiT:competing LC 1:1:1; competing kappa LC m12 (SEQ ID NO: 103)
[10] = target: T4, α-CCR2 heavy-LgBiT (SEQ ID NO: 158); assay: NanoBiT, HC-LgBiT:LC-SmBiT:competing LC 1:1:1; competing kappa LC m15 (SEQ ID NO: 106)
[11] = target: T4, α-CCR2 heavy-LgBiT (SEQ ID NO: 158); assay: NanoBiT, HC-LgBiT:LC-SmBiT:competing LC 1:1:1; competing kappa LC m18 (SEQ ID NO: 109)
[12] = target: T4, α-CCR2 heavy-LgBiT (SEQ ID NO: 158); assay: NanoBiT, HC-LgBiT:LC-SmBiT:competing LC 1:1:1; competing kappa LC m24 (SEQ ID NO: 115)
[13] = target: T4, α-CCR2 heavy-LgBiT (SEQ ID NO: 158); assay: NanoBiT, HC-LgBiT:LC-SmBiT:competing LC 1:1:1; competing kappa LC m42 (SEQ ID NO: 133)
[14] = target: T5, α-complement C5 heavy-LgBiT (SEQ ID NO: 152); assay: as above
T5 construct: VH-CH1-linker-LgBiT; germline VH1-69*01

[15] = target: T6, α-HER3 heavy-LgBiT (SEQ ID NO: 143); assay: NanoBiT, HC-LgBiT:LC-SmBiT:competing LC 1:1:1; competing kappa LC m6 (SEQ ID NO: 97)
T6 construct: VH-CH1-linker-LgBiT; germline VH3-9*01

[16] = target: T6, α-HER3 heavy-LgBiT (SEQ ID NO: 143); assay: NanoBiT, HC-LgBiT:LC-SmBiT:competing LC 1:1:1; competing kappa LC m12 (SEQ ID NO: 103)
[17] = target: T6, α-HER3 heavy-LgBiT (SEQ ID NO: 143); assay: NanoBiT, HC-LgBiT:LC-SmBiT:competing LC 1:1:1; competing kappa LC m15 (SEQ ID NO: 106)
[18] = target: T6, α-HER3 heavy-LgBiT (SEQ ID NO: 143); assay: NanoBiT, HC-LgBiT:LC-SmBiT:competing LC 1:1:1; competing kappa LC m21 (SEQ ID NO: 112)
[19] = target: T6, α-HER3 heavy-LgBiT (SEQ ID NO: 143); assay: NanoBiT, HC-LgBiT:LC-SmBiT:competing LC 1:1:1; competing kappa LC m24 (SEQ ID NO: 115)
[20] = target: T6, α-HER3 heavy-LgBiT (SEQ ID NO: 143); assay: NanoBiT, HC-LgBiT:LC-SmBiT:competing LC 1:1:1; competing kappa LC m27 (SEQ ID NO: 118)
[21] = target: T6, α-HER3 heavy-LgBiT (SEQ ID NO: 143); assay: NanoBiT, HC-LgBiT:LC-SmBiT:competing LC 1:1:1; competing kappa LC m33 (SEQ ID NO: 124)
[22] = target: T6, α-HER3 heavy-LgBiT (SEQ ID NO: 143); assay: NanoBiT, HC-LgBiT:LC-SmBiT:competing LC 1:1:1; competing kappa LC m36 (SEQ ID NO: 127)
[23] = target: T6, α-HER3 heavy-LgBiT (SEQ ID NO: 143); assay: NanoBiT, HC-LgBiT:LC-SmBiT:competing LC 1:1:1; competing kappa LC m42 (SEQ ID NO: 133)

B1: α-CCR2 light-SmBiT (SEQ ID NO: 156) (other)
light: LPVLTQPPSVSKGLRQTATLTCTGNSNNVGNQGAAWLQQHQGQPPKLLSYRNHNRPSGVSERFSPSRSGDTSSLTITGLQPEDEADYYCLAWDSSLRAFVFGTGTKLTVLGQPKANPTVTLFPPSSEELQANKATLVCLISDFYPGAVTVAWKADGSPVKAGVETTKPSKQSNNKYAASSYLSLTPEQWKSHRSYSCQVTHEGSTVEKTVAPTECSGSSGGGGSGGGGSSGGVTGYRLFEEIL
notes: lambda light chain-linker-SmBiT; germline Vl10-54*01
How did the Percent pairing [1] turn out when B1 was run?
Its Percent pairing is 90%.

And the Percent pairing [2]?
Its Percent pairing is 80%.

What about the Percent pairing [3] of the same binder?
The Percent pairing was 77%.

And the Percent pairing [4]?
The Percent pairing was 100%.

B2: α-IL12β light (SEQ ID NO: 163) (other)
light: QSVLTQPPSVSGAPGQRVTISCSGSRSNIGSNTVKWYQQLPGTAPKLLIYYNDQRPSGVPDRFSGSKSGTSASLAITGLQAEDEADYYCQSYDRYTHPALLFGTGTKVTVLGQPKANPTVTLFPPSSEELQANKATLVCLISDFYPGAVTVAWKADGSPVKAGVETTKPSKQSNNKYAASSYLSLTPEQWKSHRSYSCQVTHEGSTVEKTVAPTECS
notes: unmodified lambda light chain; germline Vl1-44*01; also called LLCP of multispecific molecule 3
Does B2 bind [5]?
Result: binds

Does B2 bind [6]?
Result: no binding

B3: α-CCR2 light-SmBiT (SEQ ID NO: 159) (other)
light: QAGLTQPPSVSKGLRQTATLTCTGNSNNVGNQGAAWLQQHQGHPPKLLFYRNNNRASGISERLSASRSGNTASLTITGLQPEDEADYYCLTWDSSLSVVVFGGGTKLTVLGQPKANPTVTLFPPSSEELQANKATLVCLISDFYPGAVTVAWKADGSPVKAGVETTKPSKQSNNKYAASSYLSLTPEQWKSHRSYSCQVTHEGSTVEKTVAPTECSGSSGGGGSGGGGSSGGVTGYRLFEEIL
notes: as for B1
With B3 as the binder, how does the Percent pairing [7] read?
Its Percent pairing is 89%.

What about the Percent pairing [8] of the same binder?
The Percent pairing was 99%.

What about the Percent pairing [9] of the same binder?
Its Percent pairing is 100%.

And the Percent pairing [10]?
Its Percent pairing is 98%.

And the Percent pairing [11]?
Its Percent pairing is 95%.

What about the Percent pairing [12] of the same binder?
Its Percent pairing is 97%.

What about the Percent pairing [13] of the same binder?
Its Percent pairing is 99%.

B4: α-complement C5 light-SmBiT (SEQ ID NO: 153) (other)
light: SYELTQPLSVSVALGQTARITCSGDSIPNYYVYWYQQKPGQAPVLVIYDDSNRPSGIPERFSGSNSGNTATLTISRAQAGDEADYYCQSFDSSLNAEVFGGGTKLTVLGQPKANPTVTLFPPSSEELQANKATLVCLISDFYPGAVTVAWKADGSPVKAGVETTKPSKQSNNKYAASSYLSLTPEQWKSHRSYSCQVTHEGSTVEKTVAPTECSGSSGGGGSGGGGSSGGVTGYRLFEEIL
notes: lambda light chain-linker-SmBiT; germline Vl3-9*01
B4 was tested. Which Percent pairing [14] did it give?
Its Percent pairing is 79%.

B5: α-HER3 light-SmBiT (SEQ ID NO: 144) (other)
light: SYELTQDPAVSVALGQTVRITCQGDSLRSYYASWYQQKPGQAPVLVIYGKNNRPSGIPDRFSGSTSGNSASLTITGAQAEDEADYYCNSRDSPGNQWVFGGGTKVTVLGGQPKANPTVTLFPPSSEELQANKATLVCLISDFYPGAVTVAWKADGSPVKAGVETTKPSKQSNNKYAASSYLSLTPEQWKSHRSYSCQVTHEGSTVEKTVAPTECSGSSGGGGSGGGGSSGGVTGYRLFEEIL
notes: lambda light chain-linker-SmBiT; germline Vl3-19*01
Which Percent pairing [15] does the source give for B5 here?
The Percent pairing was 100%.

And the Percent pairing [16]?
Its Percent pairing is 80%.

And the Percent pairing [17]?
Its Percent pairing is 93%.

And the Percent pairing [18]?
Its Percent pairing is 100%.

What about the Percent pairing [19] of the same binder?
Its Percent pairing is 86%.

And the Percent pairing [20]?
The Percent pairing was 90%.

What about the Percent pairing [21] of the same binder?
Its Percent pairing is 100%.

What about the Percent pairing [22] of the same binder?
Its Percent pairing is 100%.

What about the Percent pairing [23] of the same binder?
Its Percent pairing is 100%.
